According to paper PMC8005358 (Science translational medicine, 2019):

Target: the molecule itself
Experiment: SDS-PAGE in reducing and non-reducing conditions

B1: recombinant human erythroferrone, wild type (ERFE^WT) (natural protein, UniProt Q4G0M1 29-354, looked up)
chain: SPEPGAPSRSRARREPPPGNELPRGPGESRAGPAARPPEPTAERAHSVDPRDAWMLFVRQSDKGVNGKKRSRGKAKKLKFGLPGPPGPPGPQGPPGPIIPPEALLKEFQLLLKGAVRQRERAEPEPCTCGPAGPVAASLAPVSATAGEDDDDVVGDVLALLAAPLAPGPRAPRVEAAFLCRLRRDALVERRALHELGVYYLPDAEGAFRRGPGLNLTSGQYRAPVAGFYALAATLHVALGEPPRRGPPRPRDHLRLLICIQSRCQRNASLEAIMGLESSSELFTISVNGVLYLQMGQWTSVFLDNASGCSLTVRSGSHFSAVLLGV
- stoichiometry N: 3

B2: recombinant human erythroferrone variant with a VPFQ insertion (ERFE^VPFQ) (natural protein, UniProt Q4G0M1 29-354, looked up)
chain: SPEPGAPSRSRARREPPPGNELPRGPGESRAGPAARPPEPTAERAHSVDPRDAWMLFVRQSDKGVNGKKRSRGKAKKLKVPFQFGLPGPPGPPGPQGPPGPIIPPEALLKEFQLLLKGAVRQRERAEPEPCTCGPAGPVAASLAPVSATAGEDDDDVVGDVLALLAAPLAPGPRAPRVEAAFLCRLRRDALVERRALHELGVYYLPDAEGAFRRGPGLNLTSGQYRAPVAGFYALAATLHVALGEPPRRGPPRPRDHLRLLICIQSRCQRNASLEAIMGLESSSELFTISVNGVLYLQMGQWTSVFLDNASGCSLTVRSGSHFSAVLLGV
- stoichiometry N: 3
